Measurements from patent publication US8951750B2 (BASF SE, priority 2007, dated 2015).
Read-outs that look alike come from different tables or passages of the source.

Key:
C/C=C/C(C)(C(=O)O)C(=O)O = test: purified protein, by the assay type; conditions: other: 30° C., BTB assay, pH 7.2
Experimental: (§3) All kinetics assays were performed on an Anthos Zenyth 3100 96-well microplate reader. […] The reaction was initiated by addition of 10 μl of decarboxylase solution (0.002-0.02 mM, final concentration). The sensitivity of the reaction depends on the concentration of buffer, lower concentrations give higher sensitivity. The values of KM and kcat were calculated from spectophotometrical measurements at 620 nm of the resulting blue solution using Lineweaver-Burk plot and the following equations:
C=CC(C)(C(=O)O)C(=O)O = test: purified protein, by the assay type; conditions: other: 30° C., BTB assay, pH 7.2
Experimental: as §3

[1] = system: CC(C)=CC(C)(C(=O)O)C(=O)O; test: purified protein, by the assay type; conditions: other: 30° C., BTB assay, pH 7.2
Experimental: as §3

[2] = system: CC/C=C/C(C)(C(=O)O)C(=O)O; test: purified protein, by the assay type; conditions: other: 30° C., BTB assay, pH 7.2
Experimental: as §3

[3] = system: AMDase from Mesorhizobium sp. BNC1; test: BTB activity assay, alkenyl-substituted substrates of formula I; type: biochemical; conditions: 30° C.
Experimental: (§1) This method involves measuring spectrophotometrically at 620 nm the change of yellow colour to green/blue of pH indicator—BTB with increasing concentration of [OH^−] formed during the decarboxylation reaction. […] More concentrated buffer (10 mM) gives better results with higher concentration of enzyme or quicker reactions since changes of colour are slower due to higher buffer capacity.
(§2) All kinetics assays were performed on an Anthos Zenyth 3100 96-well microplate reader. 10 μl of 20-500 mM phenylmalonate or methyl-phenylmalonate solution (pH adjusted to 7.2) was added to 180 μl of 5-10 mM MOPS buffer pH 7.2 containing 0.0186 mM bromothymol blue. The reaction was initiated by addition of 10 μl of decarboxylase solution (0.002-0.02 mM, final concentration). The sensitivity of the reaction depends on the concentration of buffer, lower concentrations give higher sensitivity. The values of KM and kcat were calculated from spectophotometrical measurements at 620 nm of the resulting blue solution using Lineweaver-Burk plot and the following equations: […]
A BTB activity assay was performed as described above. Compounds of formula I, wherein R^2 is methyl and R^1 is phenyl, ethenyl, propen-1-yl, buten-1-yl or 2-methylpropen-1-yl were tested as substrates.

[4] = BTB spectrophotometric assay of kinetic constants, substrate phenylmalonate; type: biochemical; conditions: for Km / kcat: substrate 2-phenylmalonic acid (1), His6-tagged enzyme, BTB method; for decarboxylase activity in words: substrate phenylmalonate 1, purified enzymes
Experimental: as §1, §2

[5] = BTB spectrophotometric assay of kinetic constants, substrate 2-methyl-2-phenylmalonate; type: biochemical; conditions: for Km / kcat / reaction with 2-methyl-2-phenylmalonic acid (2) (cell spans Km, kcat, kcat/Km): substrate 2-methyl-2-phenylmalonic acid (2), BTB method; for Km / kcat: His6-tagged enzyme
Experimental: as §1, §2

[6] = In vitro decarboxylation of 2-methyl-2-phenylmalonate to 2-phenylpropanoic acid; type: biochemical; conditions: for absolute configuration of the product: 2-phenylpropionate product
Experimental: [formula] [formula] [formula] h) In Vitro Decarboxylation of 2-methyl-2-phenylmalonate to 2-phenylpropanoic Acid by AMDase from Bordetella bronchiseptica and Asp/Glu Racemase from Mesorhizobium sp. BNC1.
To 400 μl of 0.1 M TRIS buffer pH 8, 100 μl of 0.5 M water solution (after adjusting pH to 8) of 2-methyl-2-phenylmalonic acid was added. Then 20 μl of an AMDase solution (10 mg/mL) was added and the reaction was stirred at 30° C. for 8 h. Products were extracted with diethyl ether after acidifying with 1 M HCl and methylated with TMS-diazomethane. The reaction was analyzed by GC (conversion up to 95%) and 2-phenylpropanoic acid formation confirmed by GC-MS, ^1H NMR. Both enzyme products (after methylation) had the same configuration (the same peak on GC with chiral column, ee>99%). Thus according to the literature^7 absolute configuration of the product was R.

[7] = In vivo plate assay for AMDase activity (BTB), substrate phenylmalonate; type: cell-based; conditions: E. coli expressing the enzyme
Experimental: Test Petri dishes were prepared using following medium: 1% tryptone, 0.5% yeast extract, 1% sodium chloride, 1% agar, 0.025% bromothymol blue (BTB). Then pH was adjusted to 6.5 and the medium autoclaved. When medium temperature reached 50-60° C. isopropyl-β-D-thiogalactopyranoside (1 mM, final concentration), kanamycin ([…], final concentration) and phenylmalonic acid (0.36%, final concentration) were added. 100 μl of liquid bacterial culture containing AMDase was plated on test Petri dishes. After 2-3 days of incubation at 37° C. the colonies and surrounding area changed colour to green-blue indicating AMDase activity.

[8] = substrate 2-phenylmalonic acid (1); literature data (footnote a, ref 6); cited from earlier work
[9] = substrate 2-methyl-2-phenylmalonic acid (2); literature data (footnote a, ref 6); cited from earlier work

AMDase from Bordetella bronchiseptica KU1201 (Bordetella bronchiseptica)
Km (C/C=C/C(C)(C(=O)O)C(=O)O): 12.8 mM | kcat (C/C=C/C(C)(C(=O)O)C(=O)O): 46.2 s⁻¹ | kcat/Km (C/C=C/C(C)(C(=O)O)C(=O)O): 3600 M⁻¹ s⁻¹ | Km (C=CC(C)(C(=O)O)C(=O)O): 7.8 mM | kcat (C=CC(C)(C(=O)O)C(=O)O): 42.8 s⁻¹ | kcat/Km (C=CC(C)(C(=O)O)C(=O)O): 5500 M⁻¹ s⁻¹ | Km [1]: 3.5 mM | kcat [1]: 5.2 s⁻¹ | kcat/Km [1]: 1500 M⁻¹ s⁻¹ | Km [2]: 14.4 mM | kcat [2]: 23.9 s⁻¹ | kcat/Km [2]: 1600 M⁻¹ s⁻¹

C=CC(C)(C(=O)O)C(=O)O [compound 3, 2-methyl-2-vinylmalonic acid]
Km [3]: 19.4 mM | kcat [3]: 8.9 s⁻¹

B1: AMDase from Bordetella bronchiseptica: arylmalonate decarboxylase from Bordetella bronchiseptica, SEQ ID NO: 2, Blast entry BAA02419.1 (protein, listed as Bordetella bronchiseptica)
chain: MQQASTPTIGMIVPPAAGLVPADGARLYPDLPFIASGLGLGSVTPEGYDAVIESVVDHARRLQKQGAAVVSLMGTSLSFYRGAAFNAALTVAMREATGLPCTTMSTAVLNGLRALGVRRVALATAYIDDVNERLAAFLAEESLVPTGCRSLGITGVEAMARVDTATLVDLCVRAFEAAPDSDGILLSCGGLLTLDAIPEVERRLGVPVVSSSPAGFWDAVRLAGGGAKARPGYGRLFDESLEHHHHHH
Km [4]: 10.7 mM | kcat [4]: 316.1 s⁻¹ | Km [5]: 26.9 mM | kcat [5]: 278.9 s⁻¹ | absolute configuration of the product [6]: R-configuration | colour change of BTB indicator (decarboxylase activity) [7]: clear change in colour from yellow to blue | Km [8]: 13.9 mM | kcat [8]: (353)^a ^ s^−1 | Km [9]: 25.5 mM | kcat [9]: (29.8)^a s^−1

B2: protein ZP_00801202.1 from Alkaliphilus metalliredigenes QYMF: Asp/Glu racemase [Alkaliphilus metalliredigenes QYMF], SEQ ID NO: 10 (protein)
chain: MSDFSYGGRAKIGLIYPAPGWVMEPEFYLMAPWGVSTYTTRISLKHVNVAELRKLGDQSVEAAELLAQAPLDVIALGCTSGSFVNGSRYDQELIEKMEGVSGGIPCTTTSTAVVAALKALHVTKIAVATPYIDEVNLKAKNFLEAEGLDVVNIKGLGLLQDIEIDRQDMETVYRLAKEVDHVEAQAIVILCTGLRSVPIIEALENDLGKPVISAIQATFWHCLRLSGVRENVEGYGSLLRIEGLLEHHHHHH
modifications: Alkaliphilus metalliredigenes
kcat [4]: 0.26 s⁻¹ | decarboxylase activity in words [4]: very low levels of activity | reaction with 2-methyl-2-phenylmalonic acid (2) (cell spans Km, kcat, kcat/Km) [5]: No reaction | colour change of BTB indicator (decarboxylase activity) [7]: only slow development of colour

B3: protein NP_888076.1 from Bordetella bronchiseptica RB50: Putative decarboxylase [Bordetella bronchiseptica RB50], SEQ ID NO: 8 (protein, listed as Bordetella bronchiseptica)
chain: MPTPTQMKTTARYRPYAWRAKVGLIVPSTNTINEPEFYRLAPDGVTIHTGRAINAGPATQENYDRMARGVLEAADLIKTAEVDVVAYGCTSGSIVCSLDELCDGMSERVGVPAIATAGAVVAALRALGVRRVAVGTPYIDFVNQREREFLEQYGFEVVSIEGMDLGHTQEERRDIGRVPPQSTFQLARDIDRPQAEAIFLSCTNLATLDMIERIENELGKPVVTSNQATFWACLRLLGLSCAIPGYGRLLTDCLAPITRASYALALEHHHHHH
Km [4]: 10 mM | kcat [4]: 12.4 s⁻¹ | decarboxylase activity in words [4]: moderate activity | reaction with 2-methyl-2-phenylmalonic acid (2) (cell spans Km, kcat, kcat/Km) [5]: No reaction

B4: protein EAN08019.1 from Mesorhizobium sp. BNC1: Asp/Glu racemase [Mesorhizobium sp. BNC1], SEQ ID NO: 4, shown to have AMDase activity (protein, listed as Mesorhizobium sp.)
chain: MSAEDPVIGLIVPPAAGLVPPEAVAMYPEVTFHASGLGLKEMTPCGYAGVIDLVGDHAERHAQAGAQAVALMGTSLSFFRGAAFNAELITHMSNRSGLPATTMSQAVVDELKSHGARRIAVVTAYRQDVNNLLAAFLNEHGIEARSLKSLGITSVADVAGTPAKRLLQLCKEAVHDAGPVDAVLISCGGLHTLDVIVDVEISTGLPVVTSATAGVRGAVGLLKRSAETAEHATSKFLTGRALEHHHHHH
Km [4]: 9.6 mM | kcat [4]: 118 s⁻¹ | decarboxylase activity in words [4]: very efficient decarboxylase activity | decarboxylase activity in words ([5]; substrate 2-methyl-2-phenylmalonate 2, purified enzymes): very efficient decarboxylase activity | Km [5]: 22.2 mM | kcat [5]: 55.8 s⁻¹ | absolute configuration of the product [6]: R-configuration | ee of 2-phenylpropanoic acid product ([6]; GC with chiral column after methylation): > 99%

B5: protein BAA30082.1 from Pyrococcus horikoshii OT3: Hypothetical arylmalonate decarboxylase [Pyrococcus horikoshii OT3], SEQ ID NO: 6 (protein, listed as Pyrococcus horikoshii)
chain: MYGWRRRIGLIVPSSNTTMEPEFWKMAPEGVSIHTARMRLREVTEESLLEMERHAKDAALELADAEVDVIVYGCTSGSLIKGKGYDKEIAKNLEEASGIKTITTSTAVLNALNTLDIQKVVVATPYIDSVNEREKEFLEANGIEVLRIKGLGIVKNTEIGRQEPWVAYKLALEVYTPEADGLFISCTNFRTIEIIDKLEVELGVPVVTSNQATMWYALKTMKVKEKYDMYGTLLKEKLLEHHHHHH
Km [4]: 41.7 mM | kcat [4]: 0.09 s⁻¹ | decarboxylase activity in words [4]: very low levels of activity | reaction with 2-methyl-2-phenylmalonic acid (2) (cell spans Km, kcat, kcat/Km) [5]: No reaction | colour change of BTB indicator (decarboxylase activity) [7]: only slow development of colour
